From the Immune Epitope Database (IEDB) come the findings set out here.

The Kd is the concentration at which binding is half-saturated.

What all share (assay): IEDB peptide-MHC binding, purified MHC/competitive/radioactivity; filed as Kd, often an IC50 or EC50 that approximates it; ≥ and ≤ were set here for values at or beyond the usual limits of such assays
Assay [1] addresses HLA-A*03:01.
The target of assay [2] is HLA-A*11:01.
Assay [3] deals with HLA-A*31:01.
The target in assay [4] is HLA-A*33:01.
The target of assay [5] is HLA-A*68:01.
Setting [6] is: source organism: Vaccinia virus WR.
Setting [7] is: source organism: SARS coronavirus Tor2.
Setting [8] is: source organism: Mammarenavirus tacaribeense.
Setting [9] is: source organism: Mammarenavirus juninense.

On to LIKKSDAKR, for which the Kd in assay [1] (setting [6]) is not below 78000 nM; in assay [2] (setting [6]), 236 nM; in assay [3] (setting [6]), 13.8 nM; in assay [4] (setting [6]), 533 nM; in assay [5] (setting [6]) it was 170 nM.

With LLFQLCTFTK, the Kd in assay [1] (setting [7]) stood at 15.2 nM; in assay [2] (setting [7]) it was 16.3 nM; in assay [3] (setting [7]), 197 nM; in assay [4] (setting [7]) it was 6910 nM; in assay [5] (setting [7]), 66.3 nM.

With LLIWAYLSK, the Kd in assay [1] (setting [6]) was 90.7 nM; in assay [2] (setting [6]), 101 nM; in assay [3] (setting [6]) it was 11200 nM; in assay [4] (setting [6]) it was not below 37100 nM; in assay [5] (setting [6]), 153 nM.

As for LSSKGLACYR, the Kd was 129 nM in assay [1] (setting [6]); 43.8 nM in assay [2] (setting [6]); 6.87 nM in assay [3] (setting [6]); 47 nM in assay [4] (setting [6]); 4.75 nM in assay [5] (setting [6]).

Take MQTMLFTMLR: the Kd was 72.4 nM in assay [1] (setting [7]); 11.2 nM in assay [2] (setting [7]); 9.75 nM in assay [3] (setting [7]); 13.3 nM in assay [4] (setting [7]); 1.1 nM in assay [5] (setting [7]).

Consider MSYYCKSHK, for which the Kd in assay [1] (setting [7]) is 15.1 nM; in assay [2] (setting [7]), 78.9 nM; in assay [3] (setting [7]), 18.9 nM; in assay [4] (setting [7]) it was 1590 nM; in assay [5] (setting [7]) it was 55.3 nM.

Take NAFNCTFEY: the Kd in assay [1] (setting [7]) is 3970 nM; in assay [2] (setting [7]), 19.9 nM; in assay [3] (setting [7]) it was 11500 nM; in assay [4] (setting [7]) it was 1870 nM; in assay [5] (setting [7]), 9.72 nM.

As for NCKCCWFADK, the equilibrium dissociation constant (Kd) in assay [1] (setting [8]) is 13300 nM; in assay [2] (setting [8]), not below 69700 nM; in assay [3] (setting [8]) it was 12100 nM; in assay [4] (setting [8]), not below 29600 nM; in assay [5] (setting [8]), not below 20700 nM.

As to NFPQHVITK, the dissociation constant (Kd) amounted to 4020 nM in assay [1] (setting [6]); 2050 nM in assay [2] (setting [6]); 11600 nM in assay [3] (setting [6]); 8920 nM in assay [4] (setting [6]); 1250 nM in assay [5] (setting [6]).

With NQLESKVSGK, the Kd in assay [1] (setting [7]) was 9480 nM; in assay [2] (setting [7]) it was 14700 nM; in assay [3] (setting [7]), not below 42500 nM; in assay [4] (setting [7]) it was not below 70000 nM; in assay [5] (setting [7]), 6960 nM.

For the sequence NSYISNIIY, the Kd was 7480 nM in assay [1] (setting [6]); 2490 nM in assay [2] (setting [6]); not below 23700 nM in assay [3] (setting [6]); 11700 nM in assay [4] (setting [6]); 597 nM in assay [5] (setting [6]).

Regarding NVISSKISY, the Kd in assay [1] (setting [6]) is 651 nM; in assay [2] (setting [6]), 482 nM; in assay [3] (setting [6]), 4960 nM; in assay [4] (setting [6]) it was 6450 nM; in assay [5] (setting [6]) it was 439 nM.

Consider NYTKFWYVNH, for which the Kd in assay [1] (setting [9]) was not below 70000 nM; in assay [2] (setting [9]), not below 56900 nM; in assay [3] (setting [9]) it was 1000 nM; in assay [4] (setting [9]), 54.5 nM; in assay [5] (setting [9]), 9630 nM.

For the sequence PLYIDISDVK, the dissociation constant (Kd) in assay [1] (setting [6]) was 156 nM; in assay [2] (setting [6]), 9170 nM; in assay [3] (setting [6]), 9500 nM; in assay [4] (setting [6]), not below 56300 nM; in assay [5] (setting [6]) it was 1420 nM.

Consider PSTVKTNLY, for which the Kd in assay [1] (setting [6]) was not below 40300 nM; in assay [2] (setting [6]), 6770 nM; in assay [3] (setting [6]) it was 6120 nM; in assay [4] (setting [6]), 3680 nM; in assay [5] (setting [6]), 7980 nM.

With QAIEPSGNNY, the equilibrium dissociation constant (Kd) in assay [1] (setting [6]) is not below 70100 nM; in assay [2] (setting [6]) it was 4820 nM; in assay [3] (setting [6]) it was 3440 nM; in assay [4] (setting [6]), not below 70000 nM; in assay [5] (setting [6]), 692 nM.

In the case of QMAPVSAMVR, the equilibrium dissociation constant (Kd) in assay [1] (setting [7]) amounted to 527 nM; in assay [2] (setting [7]), 1080 nM; in assay [3] (setting [7]) it was 1020 nM; in assay [4] (setting [7]) it was 7320 nM; in assay [5] (setting [7]), 157 nM.

Turning to QMLTSGEYK, the Kd in assay [1] (setting [6]) worked out at 6.95 nM; in assay [2] (setting [6]), 3.67 nM; in assay [3] (setting [6]) it was 28.3 nM; in assay [4] (setting [6]), 7280 nM; in assay [5] (setting [6]) it was 266 nM.

QQVVDADSK: the Kd in assay [1] (setting [7]) was not below 28000 nM; in assay [2] (setting [7]) it was not below 26300 nM; in assay [3] (setting [7]), not below 77900 nM; in assay [4] (setting [7]), not below 77700 nM; in assay [5] (setting [7]) it was not below 65800 nM.

For the sequence QTCAGVIEY, the Kd is 3200 nM in assay [1] (setting [6]); 134 nM in assay [2] (setting [6]); 18900 nM in assay [3] (setting [6]); not below 77700 nM in assay [4] (setting [6]); 1760 nM in assay [5] (setting [6]).
